Data taken from patent publication US20180201654A1 (UNIVERSITY OF SOUTHERN CALIFORNIA, published 2018).

Columns and labels:
[1] = biological target: T1, HAUSP (Herpes virus-associated ubiquitin-specific protease), full length (human, UniProt Q93009 1-1102); experiment: co-transfection in 293T cells (Flag-HAUSP with V5-vIRF4 constructs)
T1 construct: also called USP7; Flag-HAUSP

[2] = biological target: T2, vIRF4 (Kaposi's-sarcoma-associated-herpesvirus vIRF4), full length wild type (Kaposi's-sarcoma-associated-herpesvirus …, UniProt Q2HR73 1-911); experiment: co-immunoprecipitation from transfected 293T cells, IP: V5, IB: Flag
T2 sequence: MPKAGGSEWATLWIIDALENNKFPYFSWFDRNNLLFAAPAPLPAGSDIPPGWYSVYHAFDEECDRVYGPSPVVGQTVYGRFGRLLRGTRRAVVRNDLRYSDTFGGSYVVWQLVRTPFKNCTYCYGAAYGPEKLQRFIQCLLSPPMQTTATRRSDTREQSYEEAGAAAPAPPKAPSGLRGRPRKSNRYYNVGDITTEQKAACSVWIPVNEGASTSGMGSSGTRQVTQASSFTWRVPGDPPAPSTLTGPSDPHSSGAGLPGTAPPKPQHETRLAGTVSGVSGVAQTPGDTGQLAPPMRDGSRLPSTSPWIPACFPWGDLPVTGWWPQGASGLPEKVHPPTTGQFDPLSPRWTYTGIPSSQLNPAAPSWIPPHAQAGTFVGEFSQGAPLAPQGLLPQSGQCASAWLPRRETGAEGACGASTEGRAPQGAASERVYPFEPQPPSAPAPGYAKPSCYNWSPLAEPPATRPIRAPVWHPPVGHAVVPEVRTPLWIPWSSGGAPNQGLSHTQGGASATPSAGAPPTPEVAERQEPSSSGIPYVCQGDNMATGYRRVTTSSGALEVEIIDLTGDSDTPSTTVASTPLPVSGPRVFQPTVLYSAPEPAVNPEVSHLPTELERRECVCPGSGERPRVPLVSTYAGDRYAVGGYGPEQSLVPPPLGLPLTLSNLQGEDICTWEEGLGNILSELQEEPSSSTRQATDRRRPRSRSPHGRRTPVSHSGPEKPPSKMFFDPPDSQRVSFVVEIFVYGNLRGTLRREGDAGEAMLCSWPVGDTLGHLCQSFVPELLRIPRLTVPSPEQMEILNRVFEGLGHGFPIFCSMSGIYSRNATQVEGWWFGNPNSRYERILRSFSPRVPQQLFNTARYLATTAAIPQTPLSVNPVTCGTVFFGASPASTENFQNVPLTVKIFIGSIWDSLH

[3] = biological target: T3, HAUSP TRAF domain (HAUSP^62-205) (human, UniProt Q93009 62-205); experiment: ITC
T3 construct: also called TRAF-like domain of HAUSP
T3 sequence (Q93009 62-205): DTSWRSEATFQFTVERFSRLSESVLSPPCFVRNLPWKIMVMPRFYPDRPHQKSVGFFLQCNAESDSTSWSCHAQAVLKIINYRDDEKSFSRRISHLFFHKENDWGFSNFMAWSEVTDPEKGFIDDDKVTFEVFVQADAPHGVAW

[4] = biological target: T3, HAUSP TRAF domain (HAUSP^62-205); experiment: ITC, titration against the HAUSP TRAF domain, 20 C

B1: vIRF4Δ^202-256 mutant (other)
chain: MPKAGGSEWATLWIIDALENNKFPYFSWFDRNNLLFAAPAPLPAGSDIPPGWYSVYHAFDEECDRVYGPSPVVGQTVYGRFGRLLRGTRRAVVRNDLRYSDTFGGSYVVWQLVRTPFKNCTYCYGAAYGPEKLQRFIQCLLSPPMQTTATRRSDTREQSYEEAGAAAPAPPKAPSGLRGRPRKSNRYYNVGDITTEQKAACLPGTAPPKPQHETRLAGTVSGVSGVAQTPGDTGQLAPPMRDGSRLPSTSPWIPACFPWGDLPVTGWWPQGASGLPEKVHPPTTGQFDPLSPRWTYTGIPSSQLNPAAPSWIPPHAQAGTFVGEFSQGAPLAPQGLLPQSGQCASAWLPRRETGAEGACGASTEGRAPQGAASERVYPFEPQPPSAPAPGYAKPSCYNWSPLAEPPATRPIRAPVWHPPVGHAVVPEVRTPLWIPWSSGGAPNQGLSHTQGGASATPSAGAPPTPEVAERQEPSSSGIPYVCQGDNMATGYRRVTTSSGALEVEIIDLTGDSDTPSTTVASTPLPVSGPRVFQPTVLYSAPEPAVNPEVSHLPTELERRECVCPGSGERPRVPLVSTYAGDRYAVGGYGPEQSLVPPPLGLPLTLSNLQGEDICTWEEGLGNILSELQEEPSSSTRQATDRRRPRSRSPHGRRTPVSHSGPEKPPSKMFFDPPDSQRVSFVVEIFVYGNLRGTLRREGDAGEAMLCSWPVGDTLGHLCQSFVPELLRIPRLTVPSPEQMEILNRVFEGLGHGFPIFCSMSGIYSRNATQVEGWWFGNPNSRYERILRSFSPRVPQQLFNTARYLATTAAIPQTPLSVNPVTCGTVFFGASPASTENFQNVPLTVKIFIGSIWDSLH
B1: no binding [1].

B2: Flag/HAUSP 205-1108 (enzyme)
single chain: WDSKKHTGYVGLKNQGATCYMNSLLQTLFFTNQLRKAVYMMPTEGDDSSKSVPLALQRVFYELQHSDKPVGTKKLTKSFGWETLDSFMQHDVQELCRVLLDNVENKMKGTCVEGTIPKLFRGKMVSYIQCKEVDYRSDRREDYYDIQLSIKGKKNIFESFVDYVAVEQLDGDNKYDAGEHGLQEAEKGVKFLTLPPVLHLQLMRFMYDPQTDQNIKINDRFEFPEQLPLDEFLQKTDPKDPANYILHAVLVHSGDNHGGHYVVYLNPKGDGKWCKFDDDVVSRCTKEEAIEHNYGGHDDDLSVRHCTNAYMLVYIRESKLSEVLQAVTDHDIPQQLVERLQEEKRIEAQKRKERQEAHLYMQVQIVAEDQFCGHQGNDMYDEEKVKYTVFKVLKNSSLAEFVQSLSQTMGFPQDQIRLWPMQARSNGTKRPAMLDNEADGNKTMIELSDNENPWTIFLETVDPELAASGATLPKFDKDHDVMLFLKMYDPKTRSLNYCGHIYTPISCKIRDLLPVMCDRAGFIQDTSLILYEEVKPNLTERIQDYDVSLDKALDELMDGDIIVFQKDDPENDNSELPTAKEYFRDLYHRVDVIFCDKTIPNDPGFVVTLSNRMNYFQVAKTVAQRLNTDPMLLQFFKSQGYRDGPGNPLRHNYEGTLRDLLQFFKPRQPKKLYYQQLKMKITDFENRRSFKCIWLNSQFREEEITLYPDKHGCVRDLLEECKKAVELGEKASGKLRLLEIVSYKIIGVHQEDELLECLSPATSRTFRIEEIPLDQVDIDKENEMLVTVAHFHKEVFGTFGIPFLLRIHQGEHFREVMKRIQSLLDIQEKEFEKFKFAIVMMGRHQYINEDEYEVNLKDFEPQPGNMSHPRPWLGLDHFNKAPKRSRYTYLEKAIKIHN
notes: N-terminal deletion fragment without the TRAF domain
B2: no binding [2].

B3: vIRF4^153-256 (other)
chain: SDTREQSYEEAGAAAPAPPKAPSGLRGRPRKSNRYYNVGDITTEQKAACSVWIPVNEGASTSGMGSSGTRQVTQASSFTWRVPGDPPAPSTLTGPSDPHSSGAG
With B3 the “fold higher affinity (against vIRF4^153-216 and vIRF4^202-216)” value [3] was 7 fold, the Ka [4] was 1.32e+07 M⁻¹ and the Kd [4] was 76 nM. It also gave a TΔS [4] of -10.1 kcal/mol, a n [4] of 1.13 and a ΔG [4] of -7.64 kcal/mol. For the same binder, the ΔH [4] was -17.7 kcal/mol.
